IntAct's records for PubMed 25772236

B1: E1B 55 kDa protein (Human adenovirus C serotype 5 (HAdV-5)), P03243-1 (parent)
chain: MERRNPSERGVPAGFSGHASVESGCETQESPATVVFRPPGDNTDGGAAAAAGGSQAAAAGAEPMEPESRPGPSGMNVVQVAELYPELRRILTITEDGQGLKGVKRERGACEATEEARNLAFSLMTRHRPECITFQQIKDNCANELDLLAQKYSIEQLTTYWLQPGDDFEEAIRVYAKVALRPDCKYKISKLVNIRNCCYISGNGAEVEIDTEDRVAFRCSMINMWPGVLGMDGVVIMNVRFTGPNFSGTVFLANTNLILHGVSFYGFNNTCVEAWTDVRVRGCAFYCCWKGVVCRPKSRASIKKCLFERCTLGILSEGNSRVRHNVASDCGCFMLVKSVAVIKHNMVCGNCEDRASQMLTCSDGNCHLLKTIHVASHSRKAWPVFEHNILTRCSLHLGNRRGVFLPYQCNLSHTKILLEPESMSKVNLNGVFDMTMKIWKVLRYDETRTRCRPCECGGKHIRNQPVMLDVTEELRPDHLVLACTRAEFGSSDEDTD
partner: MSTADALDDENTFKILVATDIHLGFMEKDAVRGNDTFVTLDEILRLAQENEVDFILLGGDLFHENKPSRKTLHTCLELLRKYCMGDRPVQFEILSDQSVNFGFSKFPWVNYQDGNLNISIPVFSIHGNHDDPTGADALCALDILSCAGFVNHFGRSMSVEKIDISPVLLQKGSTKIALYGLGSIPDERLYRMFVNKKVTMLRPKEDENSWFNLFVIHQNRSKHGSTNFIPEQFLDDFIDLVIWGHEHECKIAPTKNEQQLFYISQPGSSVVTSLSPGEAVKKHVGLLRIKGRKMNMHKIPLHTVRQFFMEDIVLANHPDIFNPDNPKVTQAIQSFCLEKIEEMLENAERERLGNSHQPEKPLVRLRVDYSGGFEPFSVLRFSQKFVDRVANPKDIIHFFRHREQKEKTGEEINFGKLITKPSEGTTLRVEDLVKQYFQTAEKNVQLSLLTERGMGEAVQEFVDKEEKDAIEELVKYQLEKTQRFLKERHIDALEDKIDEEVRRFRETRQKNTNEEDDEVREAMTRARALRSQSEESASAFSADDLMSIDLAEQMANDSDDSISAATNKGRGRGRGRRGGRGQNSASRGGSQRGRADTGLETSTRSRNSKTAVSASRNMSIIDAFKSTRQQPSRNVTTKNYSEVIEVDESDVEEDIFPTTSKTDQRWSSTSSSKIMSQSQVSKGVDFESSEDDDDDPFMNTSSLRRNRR
B2: E1B 55 kDa protein (Human adenovirus C serotype 5 (HAdV-5)), P03243-1 (parent)
chain: B1 chain

Variants of: B1
Details: with mre11_human MRE11, P49959

Question: For K104R, which “effect of a mutation on the interaction” value is on record?
Answer: Its value is “decreasing interaction strength”.

Variants of: B2
Details: with PML

Question: R448A;T449A;R450A was tested. Which “effect of a mutation on the interaction” value did it give?
Answer: The value was “disrupting interaction strength”.

Variants of: B2
Details: with PML
Remark: another data set of the same source

Question: For K104R, which “effect of a mutation on the interaction” value is on record?
Answer: The value was “decreasing interaction strength”.

Question: How did the “effect of a mutation on the interaction” value turn out when R443A was run?
Answer: The value was “decreasing interaction strength”.

Variants of: B2
Details: with DAXX

Question: R443A was tested. Which “effect of a mutation on the interaction” value did it give?
Answer: Its value is “decreasing interaction strength”.
